Experimental findings from patent US20230091315A1 (CISBIO BIOASSAYS, published 2023) are described below.

The target of assay [1] is T1, human recombinant G-protein alphai1 fused at the N-terminal with a Tag Twin-Strep-tag (TST-G protein alphai1) (human, UniProt B2RSH2 1-354 (mouse entry)).
T1 construct: Purified protein made in Sf9 insect cells; also called G-protein αi1; protein Gαi1
The experiment in a line: HTRF (TR-FRET) titration of antibody-d2 on 2.5 nM Twin-Strep-tagged Gαi1 with anti-Twin-Strep-tag-Lumi4 Tb; condition: GDP 10 µM. The procedure:
(§1) These two reagents were prepared in one and the same solution and were preincubated for 30 minutes at room temperature before being distributed in the wells. The antibodies DSV36S-d2, DSV38S-d2 and SC13533-d2 were prepared 4× for final concentrations in the wells between 0.01 and 10 nM depending on the antibodies.
(§2) Moreover, the antibody titration curves obtained make it possible to calculate the affinity (Kd) of these different antibodies for the G-protein αi1. This was carried out using the GraphPad Prism software by applying a “one site specific binding” model to the HTRF data.
A general note: Time-resolved FRET reads energy transfer from a long-lived donor to a nearby acceptor.

Assay [2] has as its target T1, human recombinant G-protein alphai1 …. Description: HTRF (TR-FRET) titration of antibody-d2 on 2.5 nM Twin-Strep-tagged Gαi1 with anti-Twin-Strep-tag-Lumi4 Tb; condition: Buffer only. As to the method: as §1, §2
The target is the same in assay [3]. Description: HTRF competition on Gαi1 + GTPgS: unlabeled antibody varied against DSV36S-d2 (10 nM), detection with anti-Twin-Strep-tag-Lumi4 Tb. As to the method: (§3) These two reagents were prepared in one and the same solution and were preincubated for 30 minutes at room temperature before being distributed in the wells. The cold antibodies DSV36S, DSV38S, DSV26S, DSV3S, and DSV39S were prepared 4× for final concentrations in the wells between 0.001 and 1 μM. The antibody DSV36S-d2 was prepared 4× for a final concentration of 10 nM.
(§4) 1) 10 μl of the preincubated mixture of G-protein αi1 +GTPgS was put in each well, 2) 5 μl of the unlabeled antibodies DSV36S, DSV38S, DSV26S, DSV3S, and DSV39S was added to each well, 3) The plates were incubated for 30 minutes at room temperature, 4) 5 μl of the anti Twin-Strep-tag-Lumi4 Tb antibody and of the antibody DSV36S-d2 were added to each well.

Assay [4] has the same target. The experiment in a line: HTRF competition on Gαi1 + GTPgS: unlabeled antibody varied against 36S-d2 (DSV36S-d2, 10 nM), detection with anti-Twin-Strep-tag-Lumi4 Tb. The procedure:
as §3, §4

Assay [5] shares this target. Description: HTRF (TR-FRET) titration of antibody-d2 on 2.5 nM Twin-Strep-tagged Gαi1 with anti-Twin-Strep-tag-Lumi4 Tb; condition: GTP 10 µM as printed (the protocol names GTPgS). The procedure:
as §1, §2

T1 sequence (B2RSH2 whole entry, the tested form may be a part): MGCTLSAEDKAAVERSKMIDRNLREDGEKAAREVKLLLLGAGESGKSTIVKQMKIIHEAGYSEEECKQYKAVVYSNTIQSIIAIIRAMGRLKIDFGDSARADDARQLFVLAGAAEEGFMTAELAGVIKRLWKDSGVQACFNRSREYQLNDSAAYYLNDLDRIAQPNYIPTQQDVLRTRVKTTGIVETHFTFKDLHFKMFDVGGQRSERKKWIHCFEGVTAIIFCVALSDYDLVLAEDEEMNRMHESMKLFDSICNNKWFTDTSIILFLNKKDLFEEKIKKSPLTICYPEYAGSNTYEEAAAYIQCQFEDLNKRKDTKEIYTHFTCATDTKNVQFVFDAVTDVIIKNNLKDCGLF

B1: antibody DSV36S (antibody, V domains shown)
VH: EVQLQQSGAELVRPGALVKLSCKASGFNIKDYYMHWVKQRPEQGLEWIGWIDPENGNTIYDPKFQGKASITADTSSNTAYLQLSSLTSEDTAVYYCTRGGGYYSDWYFDVWGAGTTVTVSS
VL: QIVLTQSPAIMSASPGEKVTMTCSASSSVSYMHWYQQKSGTSPKRWIYDTSKLASGVPARFSGSGSGTSYSLTISSMEAEDAATYYCQQWSSNPPITFGAGTKLELK
notes: Used unlabeled or labeled with d2 (acceptor) or Lumi4Tb (donor); also called DSV36S-d2; DSV36S-Lumi4Tb
As for B1, the figures for the Kd in assay [1], in assay [2] and in assay [5] were 0.48 nM, 0.82 nM and 0.31 nM, respectively. For the same molecule, the “IC50 (read off the curve)” value in assay [3] and in assay [4] was about 0.5 nM in each case.

The term Kd denotes the constant that tells how readily two partners part at equilibrium.
